From the supplement of paper PMC10126150
± gives the standard deviation of the averaged measurements.

Test system: ATP
Test: switch fluorescence ratio, 500 uM ATP over buffer (Cy3 cluster intensity, sum of 5 cycles each) (fold (ratio)); higher = stronger signal-on switching upon ATP binding; sequences stand for … in TCGTCGGCAGCGTCAGATGTGTATAAGAGACAGTTTTTTTTTTTTTTTTTTTTTTTTT…TC
Details: aptamer strand: ATP DNA aptamer (quencher-CACCTGGGGGAGTATTGCGGAGGAAGG + anchor), 100 nM annealed; ATP concentration: 500 uM
How it was run: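 Exposure to 500 uM ATP lasted 15 min at 22 °C before imaging, and a selection-buffer image was taken beforehand, for Cy3-labelled switching-strand clusters on a modified Illumina MiSeq flow-cell annealed to 100 nM quencher-labelled ATP aptamer. Five buffer/ATP cycles were run with NaOH stripping and re-annealing between them. The fluorescence ratio per cluster is summed target-cycle over summed buffer-cycle Cy3 intensity, averaged per switch-domain sequence. Clusters outside 100-1000 RFU were excluded.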

| Sequence | switch fluorescence ratio |
| --- | --- |
| GGATGGTTGC | 1.03 ± 0.021 |
| GGATGTCCAG | 0.947 ± 0.028 |
| GGATGTGCTG | 1.04 ± 0.049 |
| GGATGTTATT | 0.9915 ± 0.0094 |
| GGATGTTCGT | 0.9911 ± 0.0083 |
| GGATTAGGGC | 1.02 ± 0.041 |
| GGATTAGTGA | 0.964 ± 0.036 |
| GGATTCAAAG | 0.993 ± 0.015 |
| GGATTCTAGG | 0.969 ± 0.02 |
| GGATTCTGGG | 0.963 ± 0.042 |
| GGATTCTGTG | 0.969 ± 0.018 |
| GGATTGAATG | 0.972 ± 0.025 |
| GGATTGGATG | 0.983 ± 0.046 |
| GGATTGGGCA | 1.01 ± 0.021 |
| GGATTGGTAA | 0.9919 ± 0.00028 |
| GGATTGTGAG | 0.987 ± 0.042 |
| GGATTTACGT | 1.02 ± 0.023 |
| GGATTTCGTG | 0.986 ± 0.024 |
| GGATTTGAGT | 0.976 ± 0.015 |
| GGATTTGCCA | 0.989 ± 0.038 |
| GGATTTGGGT | 0.981 ± 0.017 |
| GGATTTTGGG | 1.01 ± 0.028 |
| GGATTTTTGT | 0.997 ± 0.022 |

| Sequence | switch fluorescence ratio |
| --- | --- |
| GGATTTTTTT | 1 ± 0.032 |
| GGCAACGGGG | 1.01 ± 0.036 |
| GGCAATTAGG | 1.04 ± 0.048 |
| GGCAATTCTC | 3.9 ± 0.31 |
| GGCAATTGGA | 1.01 ± 0.011 |
| GGCACATTTT | 1.01 ± 0.022 |
| GGCACCTTAT | 1.06 ± 0.034 |
| GGCACTAGAC | 1.09 ± 0.11 |
| GGCAGAAAAT | 1.01 ± 0.032 |
| GGCAGAAAGT | 1.014 ± 0.0027 |
| GGCAGACGGT | 1.006 ± 0.0016 |
| GGCAGAGATG | 1.02 ± 0.046 |
| GGCAGGATAT | 1.016 ± 0.0056 |
| GGCATATGTT | 1 ± 0.021 |
| GGCATCGAAG | 1 ± 0.027 |
| GGCATCTAAG | 0.997 ± 0.019 |
| GGCATCTGGG | 1.026 ± 0.0011 |
| GGCATTATAA | 0.99 ± 0.025 |
| GGCATTCGTG | 0.9743 ± 0.0049 |
| GGCATTGAGG | 0.988 ± 0.04 |
| GGCCAAAGGG | 0.9965 ± 0.0036 |
| GGCCAAATCC | 1.006 ± 0.0056 |
| GGCCAAGGGA | 1.016 ± 0.0069 |

| Sequence | switch fluorescence ratio |
| --- | --- |
| GGCCAGGAGA | 1.04 ± 0.021 |
| GGCCATTGTG | 0.982 ± 0.023 |
| GGCCCCATGC | 1.24 ± 0.034 |
| GGCCCGGGGA | 1.02 ± 0.042 |
| GGCCGAGAGG | 0.993 ± 0.053 |
| GGCCGAGGGG | 1.01 ± 0.03 |
| GGCCGATCAT | 1.02 ± 0.04 |
| GGCCGGATAG | 1.03 ± 0.021 |
| GGCCGGTGAA | 0.9843 ± 0.0045 |
| GGCCGGTTGC | 1.03 ± 0.071 |
| GGCCGTTTGA | 1.02 ± 0.048 |
| GGCCTACCGC | 1.13 ± 0.036 |
| GGCCTATAAC | 1 ± 0.021 |
| GGCCTGGACG | 1.05 ± 0.015 |
| GGCCTGGGGT | 0.996 ± 0.029 |
| GGCCTTTTAA | 1.04 ± 0.029 |
| GGCGAAGGAG | 0.999 ± 0.011 |
| GGCGAGACGC | 0.981 ± 0.031 |
| GGCGCAAAGC | 1.487 ± 0.013 |
| GGCGCAAGCT | 1.02 ± 0.025 |
| GGCGCAGCTG | 0.96511 ± 0.0006 |
| GGCGCATGGA | 0.991 ± 0.023 |
| GGCGCCGGCT | 0.992 ± 0.079 |

| Sequence | switch fluorescence ratio |
| --- | --- |
| GGCGCGTTAG | 1.02 ± 0.06 |
| GGCGCTTATT | 0.963 ± 0.014 |
| GGCGCTTGTT | 0.975 ± 0.034 |
| GGCGGAAGTC | 1.01 ± 0.013 |
| GGCGGAGCTA | 1.03 ± 0.049 |
| GGCGGATATA | 0.9553 ± 0.0058 |
| GGCGGATATT | 0.9975 ± 0.0069 |
| GGCGGCCGGA | 1.002 ± 0.0084 |
| GGCGGCGGGG | 1.03 ± 0.049 |
| GGCGGCTTGG | 1.005 ± 0.0031 |
| GGCGGGAATT | 0.972 ± 0.031 |
| GGCGGGACGG | 1.01 ± 0.033 |
| GGCGGGGACC | 0.982 ± 0.025 |
| GGCGGGGGAG | 1.03 ± 0.021 |
| GGCGGGGGCC | 0.969 ± 0.016 |
| GGCGGGGTCG | 1.01 ± 0.038 |
| GGCGGGGTGC | 1.016 ± 0.0073 |
| GGCGGGTTGG | 0.998 ± 0.048 |
| GGCGTAAAAG | 1.01 ± 0.038 |
| GGCGTAAGCT | 1.012 ± 0.0095 |
| GGCGTAAGGG | 1.01 ± 0.019 |
| GGCGTAGTCA | 0.9855 ± 0.0022 |
| GGCGTAGTGC | 1.02 ± 0.016 |

| Sequence | switch fluorescence ratio |
| --- | --- |
| GGCGTCCTGG | 1.03 ± 0.029 |
| GGCGTCCTTT | 0.994 ± 0.031 |
| GGCGTGGGGA | 1.02 ± 0.017 |
| GGCGTGTGCG | 0.98 ± 0.039 |
| GGCGTTCGCT | 0.984 ± 0.026 |
| GGCGTTTGTC | 1.03 ± 0.032 |
| GGCGTTTTTG | 1.02 ± 0.046 |
| GGCTAATGCG | 1.01 ± 0.036 |
| GGCTACCAGT | 0.96 ± 0.038 |
| GGCTACGAGA | 1.04 ± 0.018 |
| GGCTACTGGA | 1.03 ± 0.095 |
| GGCTAGCCAG | 1.01 ± 0.011 |
| GGCTATCTTT | 1 ± 0.029 |
| GGCTATGGGG | 1 ± 0.013 |
| GGCTCACGGT | 0.98015 ± 0.00082 |
| GGCTGAAGTT | 0.994 ± 0.022 |
| GGCTGCGCGG | 1 ± 0.032 |
| GGCTGGACGG | 1.01 ± 0.011 |
| GGCTGGGCAG | 0.981 ± 0.035 |
| GGCTGGGGGT | 1.1 ± 0.07 |
| GGCTGTAAGT | 0.9844 ± 0.0066 |
| GGCTGTACTT | 1.03 ± 0.047 |
| GGCTGTATTT | 0.9965 ± 0.0031 |

| Sequence | switch fluorescence ratio |
| --- | --- |
| GGCTTAAAAA | 0.982 ± 0.021 |
| GGCTTAAGAT | 0.998 ± 0.017 |
| GGCTTACAGT | 0.9941 ± 0.0061 |
| GGCTTCTGGG | 0.98911 ± 0.00037 |
| GGCTTGCTAG | 1.001 ± 0.0046 |
| GGCTTGGCCC | 1.015 ± 0.0063 |
| GGCTTGGGGA | 1.01 ± 0.036 |
| GGCTTTACCT | 1.101 ± 0.0097 |
| GGCTTTGGAC | 0.994 ± 0.055 |
| GGCTTTGTCC | 0.991 ± 0.032 |
| GGCTTTTACT | 1.04 ± 0.019 |
| GGCTTTTTAC | 1.06 ± 0.036 |
| GGGAAAAATT | 1.013 ± 0.006 |
| GGGAAAAGTT | 1 ± 0.04 |
| GGGAAACGGG | 0.995 ± 0.011 |
| GGGAAAGAGC | 1.151 ± 0.0064 |
| GGGAAAGCAC | 1.12 ± 0.021 |
| GGGAAAGGAG | 0.989 ± 0.035 |
| GGGAAAGGTA | 0.986 ± 0.011 |
| GGGAAAGTGG | 1.012 ± 0.008 |
| GGGAAATCGG | 0.986 ± 0.014 |
| GGGAAATGGG | 0.9747 ± 0.0087 |
| GGGAAATGTG | 1 ± 0.023 |

| Sequence | switch fluorescence ratio |
| --- | --- |
| GGGAACACTT | 0.998 ± 0.025 |
| GGGAACGGAA | 2.4 ± 1.8 |
| GGGAAGAGGA | 0.979 ± 0.025 |
| GGGAAGCCGT | 1.14 ± 0.23 |
| GGGAAGGGGT | 1.01 ± 0.055 |
| GGGAAGGGTG | 1.08 ± 0.089 |
| GGGAAGGTAC | 1.047 ± 0.0014 |
| GGGAAGGTCT | 0.994 ± 0.03 |
| GGGAAGTCAC | 1.121 ± 0.0039 |
| GGGAAGTCTG | 0.955 ± 0.024 |
| GGGAAGTTCA | 1 ± 0.029 |
| GGGAAGTTTT | 0.978 ± 0.027 |
| GGGAATAACT | 0.998 ± 0.037 |
| GGGAATAAGC | 0.978 ± 0.034 |
| GGGAATGGGC | 0.991 ± 0.066 |
| GGGAATGTTA | 0.9902 ± 0.007 |
| GGGAATGTTT | 0.978 ± 0.03 |
| GGGAATTTTC | 1.004 ± 0.0074 |
| GGGACAAGTC | 1.023 ± 0.0067 |
